B1: 1H3 fully human monoclonal anti-IGFR1 antibody (antibody, V domains shown)
VH: EVQLVQSGGGLVLPGGSLRLSCAGSGFTFSNYAMHWIRQAPGKGLEWVSAIGAGGDTYYADSVKGRFTISRDNAKDSLYLQMNSLRAEDMAVYYCARGRHRNWYYYNKDYWGQGTLVTVSS
VL: EIVLTQSPATLSLSPGERATLSCRASQSVSSFLAWYQQKPGQAPRLLIYDASNRAPGIPARFSGSGSGTDFTLTISSLEPEDFAVYYCQQRSNWPRWTFGQGTKVEIKR
B2: 15H12 fully human monoclonal anti-IGFR1 antibody (antibody, IgG3, V domains shown)
VH: EVQLVQSGGGLVHPGGSLRLSCAASGFTFSSFAMHWVRQAPGKGLEWISVIDTRGATYYADSVKGRFTISRDNAKNSLYLQMNSLRAEDMAVYYCARLGNFYYGMDVWGQGTTVTVSS
VL: EIVLTQVPDFQSVTPKEKVTITCRASQSIGSSLHWYQQKPDQSPKLLIKYASQSLSGVPSRFSGSGSGTDFTLTINSLEAEDAAAYYCHQSSRLPHTFGGGTKVEIKR
B3: 19D12 fully human monoclonal anti-IGFR1 antibody (antibody, V domains shown)
VH: B2 VH
VL: B2 VL

molecular target: human IGFR1 on cells (HEK293 cells transfected with IGFR1 DNA; MCF-7 cells expressing endogenous IGFR1) (human, UniProt P08069 31-1367); experiment: cell-based or functional assay
Sequence (P08069 31-1367 limits assumed): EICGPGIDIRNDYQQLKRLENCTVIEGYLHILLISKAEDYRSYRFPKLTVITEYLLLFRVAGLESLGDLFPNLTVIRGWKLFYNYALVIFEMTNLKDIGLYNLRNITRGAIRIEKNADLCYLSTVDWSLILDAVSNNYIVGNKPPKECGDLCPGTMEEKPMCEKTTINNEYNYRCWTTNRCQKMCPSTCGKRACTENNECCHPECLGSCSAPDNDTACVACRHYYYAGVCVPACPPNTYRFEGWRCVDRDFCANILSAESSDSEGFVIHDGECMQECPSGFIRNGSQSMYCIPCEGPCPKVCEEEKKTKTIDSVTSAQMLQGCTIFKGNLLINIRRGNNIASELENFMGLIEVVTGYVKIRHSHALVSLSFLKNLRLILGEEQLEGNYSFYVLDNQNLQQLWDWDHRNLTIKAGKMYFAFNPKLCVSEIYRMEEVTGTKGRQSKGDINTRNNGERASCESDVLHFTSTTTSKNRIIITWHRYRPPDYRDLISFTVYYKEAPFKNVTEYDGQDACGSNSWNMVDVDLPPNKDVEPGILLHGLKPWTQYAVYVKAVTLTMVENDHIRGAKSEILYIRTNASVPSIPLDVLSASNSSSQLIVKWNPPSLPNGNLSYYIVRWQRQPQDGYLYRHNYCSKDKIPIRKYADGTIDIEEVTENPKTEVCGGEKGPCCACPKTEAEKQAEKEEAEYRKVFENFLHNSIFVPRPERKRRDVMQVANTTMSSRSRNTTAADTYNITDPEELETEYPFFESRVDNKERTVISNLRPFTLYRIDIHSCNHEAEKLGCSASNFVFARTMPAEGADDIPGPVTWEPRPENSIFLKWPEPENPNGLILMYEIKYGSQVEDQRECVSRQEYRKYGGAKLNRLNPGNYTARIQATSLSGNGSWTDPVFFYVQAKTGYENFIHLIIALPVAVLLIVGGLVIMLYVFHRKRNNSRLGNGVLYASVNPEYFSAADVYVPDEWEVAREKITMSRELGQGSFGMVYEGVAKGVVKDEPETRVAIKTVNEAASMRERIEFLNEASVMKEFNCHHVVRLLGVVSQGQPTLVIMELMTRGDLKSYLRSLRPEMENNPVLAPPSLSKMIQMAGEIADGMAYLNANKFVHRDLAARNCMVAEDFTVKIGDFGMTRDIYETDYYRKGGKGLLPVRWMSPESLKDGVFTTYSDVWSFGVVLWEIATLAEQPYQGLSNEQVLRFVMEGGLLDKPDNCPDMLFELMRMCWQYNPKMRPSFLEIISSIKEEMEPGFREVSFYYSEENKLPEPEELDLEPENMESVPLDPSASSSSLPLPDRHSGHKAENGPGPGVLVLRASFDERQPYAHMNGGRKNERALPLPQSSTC

Row | IGFR1 autophosphorylation (IGF-I stimulated cells, immunoprecipitation and Western blot), IC50 [nM] | Binder
1 | 0.1 | B1
2 | 0.1 | B2
3 | 0.1 | B3

Reference: patent US20040018191A1 (SCHERING, published 2004)
